The values that follow come from patent US20250320281A1.

A value given as a limit tells only on which side of the number the result lay.

Holding throughout (experiment): cell-based or functional assay
The target of assay [1] is HIV-1 Env of isolate MGRM-D-021 (clade D pseudovirus) (HIV-1).
The target in assay [2] is HIV-1 Env of isolate MGRM-D-020 (clade D pseudovirus) (HIV-1).
For assay [3], the target named is HIV-1 Env of pseudovirus MGRM-Chronic-B-010 (HIV-1).
Assay [4] addresses HIV-1 Env of isolate MGRM-Chronic-B-002, clade B, on pseudovirus (HIV-1).
The target in assay [5] is HIV-1 Env of pseudovirus MGRM-F1-017 (HIV-1).
Assay [6] deals with HIV-1 Env of pseudovirus MGRM-AE-008 (clade CRF01_AE) (HIV-1).
Assay [7] addresses HIV-1 Env of pseudovirus MGRM-F1-014 (HIV-1).
Assay [8] has as its target HIV-1 Env of isolate LAVIC_18 (HIV-1).
For assay [9], the target named is HIV-1 Env of isolate 92UG005 (clade D pseudovirus) (HIV-1).
Assay [10] deals with HIV-1 APV-13 envelope glycoprotein (Env) on pseudovirus (HIV-1).
The target of assay [11] is HIV-1 Env of pseudovirus MGRM-F1-020 (HIV-1).
Assay [12] concerns the target HIV-1 Env of isolate MGRM-D-001 (clade D pseudovirus) (HIV-1).
Assay [13] addresses HIV-1 envelope glycoprotein (Env) of isolate MGRM-A-009, clade A (HIV-1).
For assay [14], the target named is HIV-1 Env of isolate VLGCA1 (clade A pseudovirus) (HIV-1).
The target in assay [15] is HIV-1 Env of pseudovirus MGRM-G-004 (clade G) (HIV-1).
The target of assay [16] is HIV-1 Env of isolate 92RW024 (clade A pseudovirus) (HIV-1).
In assay [17] the target is HIV-1 Env of pseudovirus MGRM-G-014 (HIV-1, clade G isolate MGRM-G-014).
In assay [18] the target is HIV-1 Env of isolate 93TH305 (HIV-1).
Assay [19] has as its target HIV-1 Env of isolate 92TH021 (clade AE), on pseudovirus (HIV-1).
The target in assay [20] is HIV-1 APV6 Env (pseudovirus, clade B) (HIV-1).
For assay [21], the target named is HIV-1 Env of isolate MGRM-G-006 (HIV-1).
Assay [22] addresses HIV-1 MGRM-C-028 Env (pseudovirus, clade C) (HIV-1).
Assay [23] concerns the target HIV-1 Env of isolate MGRM-AE-005 (subtype AE) (HIV-1).
Assay [24] concerns the target HIV-1 JRFL Env (pseudovirus) (HIV-1).
Assay [25] deals with aMLV envelope (negative control pseudovirus).
Assay [26] has as its target HIV-1 Env of isolate 92TH021 (subtype AE) (HIV-1).
Assay [27] has as its target HIV-1 92BR020 Env (pseudovirus) (HIV-1).
Assay [28] deals with HIV-1 Env of isolate MG RM-D-012 (HIV-1).

Sequence of 4980_N08 (PGT-143) (antibody) (VH): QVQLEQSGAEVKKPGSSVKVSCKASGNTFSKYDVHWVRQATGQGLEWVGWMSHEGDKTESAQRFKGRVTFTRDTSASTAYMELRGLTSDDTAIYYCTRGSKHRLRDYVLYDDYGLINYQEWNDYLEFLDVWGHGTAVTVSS
Sequence of 4980_N08 (PGT-143) (antibody) (VL): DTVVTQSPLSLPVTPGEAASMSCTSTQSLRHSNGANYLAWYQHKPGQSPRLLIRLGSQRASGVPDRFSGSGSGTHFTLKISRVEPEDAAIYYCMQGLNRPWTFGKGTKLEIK
Sequence of 1443_C16 (PG16) (TCN-116) (antibody) (VH): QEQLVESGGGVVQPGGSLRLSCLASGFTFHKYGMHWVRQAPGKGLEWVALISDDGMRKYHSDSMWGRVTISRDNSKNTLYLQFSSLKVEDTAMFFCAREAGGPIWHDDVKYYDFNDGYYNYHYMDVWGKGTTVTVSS
Sequence of 1443_C16 (PG16) (TCN-116) (antibody) (VL): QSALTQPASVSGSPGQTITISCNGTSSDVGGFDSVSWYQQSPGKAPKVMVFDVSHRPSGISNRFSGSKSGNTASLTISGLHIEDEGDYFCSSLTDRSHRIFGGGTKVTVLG
Sequence of 4995_E20 (PGT-142) (antibody) (VH): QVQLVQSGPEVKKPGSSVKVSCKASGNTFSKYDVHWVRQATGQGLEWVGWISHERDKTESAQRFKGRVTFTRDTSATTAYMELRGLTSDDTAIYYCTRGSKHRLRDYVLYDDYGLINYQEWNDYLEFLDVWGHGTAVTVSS
Sequence of 4995_E20 (PGT-142) (antibody) (VL): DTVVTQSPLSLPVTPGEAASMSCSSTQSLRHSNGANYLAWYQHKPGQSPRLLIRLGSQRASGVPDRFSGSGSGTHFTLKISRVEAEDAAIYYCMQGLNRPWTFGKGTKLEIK
Sequence of 4970_K22 (PGT-144) (antibody) (VH): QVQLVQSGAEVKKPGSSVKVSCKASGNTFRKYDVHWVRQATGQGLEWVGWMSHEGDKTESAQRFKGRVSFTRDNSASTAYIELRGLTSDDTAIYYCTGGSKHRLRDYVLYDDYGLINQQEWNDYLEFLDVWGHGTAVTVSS
Sequence of 4970_K22 (PGT-144) (antibody) (VL): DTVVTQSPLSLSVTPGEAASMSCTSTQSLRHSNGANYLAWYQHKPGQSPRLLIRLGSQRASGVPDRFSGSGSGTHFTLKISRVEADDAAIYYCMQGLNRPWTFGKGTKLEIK
Sequence of 4993_K13 (PGT-141) (antibody) (VH): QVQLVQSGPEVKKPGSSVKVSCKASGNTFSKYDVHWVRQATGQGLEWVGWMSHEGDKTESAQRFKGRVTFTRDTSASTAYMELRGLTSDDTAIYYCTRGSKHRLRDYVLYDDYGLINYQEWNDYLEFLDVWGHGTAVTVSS

As usually defined, the IC50 is the concentration at which inhibition is half-maximal. With 2F5 (antibody), the IC50 (µg/ml), pseudovirus neutralization is over 50 µg/mL in assay [1]; over 50 µg/mL in [2]; 0.96 µg/mL in assay [3]; 1.25 µg/mL in assay [4]; over 50 µg/mL in assay [5]; 15.1 µg/mL in [7]. Also, the IC50 (µg/ml), pseudovirus neutralization amounted to 8.61 µg/mL in assay [9]; 0.59 µg/mL in assay [11]; 0.63 µg/mL in [12]; 9.4 µg/mL in assay [13]; 3.9 µg/mL in [14]; 8.22 µg/mL in assay [16]. The same substance registered an IC50 (µg/ml), pseudovirus neutralization in assay [17] of 9.65 µg/mL. In addition, the IC50 in assay [6], in [8] and in assay [15] was over 50 µg/mL each time. For the same substance, in [10], the IC50, pseudovirus neutralization was 2.8 µg/mL.
2G12 (antibody): the IC50 (µg/ml), pseudovirus neutralization in assay [1] is 23 µg/mL; in [2] it was over 50 µg/mL; in assay [3], 1.5 µg/mL; in assay [4], over 50 µg/mL; in assay [5] it was over 50 µg/mL; in [7], over 50 µg/mL. The IC50 (µg/ml), pseudovirus neutralization in [9] was over 50 µg/mL; in [11] it was over 50 µg/mL; in [12] it was over 50 µg/mL; in [13], 7.47 µg/mL; in assay [14] it was over 50 µg/mL; in assay [16], over 50 µg/mL. This substance also returned an IC50 (µg/ml), pseudovirus neutralization in [17] of over 50 µg/mL. Besides, the half-inhibitory concentration (IC50) in assay [6], in assay [8] and in assay [15] was over 50 µg/mL each time. Further, the IC50, pseudovirus neutralization in [10] was 23.9 µg/mL.
Regarding 4E10 (antibody), the IC50 (µg/ml), pseudovirus neutralization in assay [1] was 13.3 µg/mL; in [2], over 50 µg/mL; in assay [3] it was 1.69 µg/mL; in [4], 2.19 µg/mL; in assay [5], 4.92 µg/mL; in assay [7] it was 7.36 µg/mL. Further, the IC50 (µg/ml), pseudovirus neutralization in assay [9] worked out at 7.46 µg/mL; in assay [11], 0.66 µg/mL; in [12], 1.84 µg/mL; in [13], 12 µg/mL; in assay [14], 4.58 µg/mL; in assay [16], 8.88 µg/mL. The IC50 (µg/ml), pseudovirus neutralization in [17] was determined as 13.7 µg/mL. Besides, the IC50 was 0.94 µg/mL in assay [6], over 50 µg/mL in [8] and 1.47 µg/mL in assay [15]. The substance further registered an IC50, pseudovirus neutralization in [10] of 3.8 µg/mL.
For the substance 1443_C16 (PG16) (TCN-116) (antibody), the IC50 (µg/ml), pseudovirus neutralization in assay [1] is over 50 µg/mL; in assay [2], 16.3 µg/mL; in [3], 0.01 µg/mL; in assay [4], 3.06 µg/mL; in assay [5], over 50 µg/mL; in assay [7], 0.01 µg/mL. For the same substance, the IC50 (µg/ml), pseudovirus neutralization was over 50 µg/mL in assay [9]; 4.35 µg/mL in assay [11]; over 50 µg/mL in assay [12]; 0.01 µg/mL in assay [13]; 0.18 µg/mL in [14]; 0.08 µg/mL in assay [16]. In assay [17], this substance yielded an IC50 (µg/ml), pseudovirus neutralization of 6.98 µg/mL. The IC50 was 3.25 µg/mL in [6], 0.02 µg/mL in assay [8] and over 50 µg/mL in [15]. The substance also showed an IC50, pseudovirus neutralization in [10] of over 50 µg/mL.
As to 1495_C14 (PGC14) (antibody), the IC50 (µg/ml), pseudovirus neutralization in [1] was over 50 µg/mL; in [2] it was over 50 µg/mL; in [3], 27 µg/mL; in assay [4], over 50 µg/mL; in [5], over 50 µg/mL; in [7], over 50 µg/mL. The IC50 (µg/ml), pseudovirus neutralization in assay [9], in assay [11], in assay [12], in assay [13], in [14] and in assay [16] was over 50 µg/mL throughout. For the same substance, the IC50 (µg/ml), pseudovirus neutralization in assay [17] was over 50 µg/mL. Also, the IC50 in assay [6], in [8] and in [15] was over 50 µg/mL throughout. The substance further displayed an IC50, pseudovirus neutralization in assay [10] of over 50 µg/mL.
Turning to 1496_C09 (PG9) (TCN-109) (antibody), the results for the IC50 (µg/mL), pseudovirus neutralization in [18] and in assay [21] were 8.12 µg/mL and 1.98 µg/mL, respectively. Moreover, the IC50 (µg/ml), pseudovirus neutralization was 2.03 µg/mL in assay [2]; 0.004 µg/mL in assay [3]; 1.41 µg/mL in assay [4]; 0.01 µg/mL in assay [7]; 4.55 µg/mL in [11]; 0.03 µg/mL in assay [13]. Moreover, the figures for the IC50 (µg/ml), pseudovirus neutralization in [14], in assay [16] and in assay [17] were 0.07 µg/mL, 0.18 µg/mL and 6.32 µg/mL, respectively. Moreover, the IC50, pseudovirus neutralization in assay [19] was determined as 0.103 µg/mL. For the same substance, the IC50 neutralization in assay [20] stood at 0.214 µg/mL; in [22], 0.121 µg/mL. Moreover, the results for the IC50 in assay [6] and in assay [8] were 10.6 µg/mL and 0.1 µg/mL, respectively.
Take 4970_K22 (PGT-144) (antibody): the IC50 (µg/mL), pseudovirus neutralization is over 50 µg/mL in [23], 3.84 µg/mL in assay [21], over 50 µg/mL in [25] and 0.052 µg/mL in assay [26]. Moreover, the IC50 (neutralizing activity, pseudovirus) in assay [24] and in assay [25] was over 10 µg/mL in each case. In addition, the neutralization IC50 (pseudovirus) in [27] is over 10 µg/mL.
In the case of 4980_N08 (PGT-143) (antibody), the IC50 (µg/mL), pseudovirus neutralization in assay [23] was over 50 µg/mL; in assay [21] it was 0.031 µg/mL; in assay [25], over 50 µg/mL; in assay [26], 0.003 µg/mL. For the same substance, the IC50 (neutralizing activity, pseudovirus) in [24] and in [25] was over 10 µg/mL in each case. In addition, the neutralization IC50 (pseudovirus) in [27] was over 10 µg/mL.
With 4993_K13 (PGT-141) (antibody), the IC50 (µg/mL), pseudovirus neutralization in assay [23] was over 50 µg/mL; in assay [21] it was 0.043 µg/mL; in assay [25], over 50 µg/mL; in assay [26] it was 0.001 µg/mL. Moreover, the IC50 (neutralizing activity, pseudovirus) in assay [24] and in [25] was over 10 µg/mL each time. The substance further had a neutralization IC50 (pseudovirus) in [27] of over 10 µg/mL.
As to 4995_E20 (PGT-142) (antibody), the IC50 (µg/mL), pseudovirus neutralization in assay [23] was over 50 µg/mL; in assay [21] it was 0.019 µg/mL; in [25], over 50 µg/mL; in assay [26], 0.002 µg/mL. Further, the IC50 (neutralizing activity, pseudovirus) in [24] and in [25] was over 10 µg/mL throughout. The same substance registered a neutralization IC50 (pseudovirus) in assay [27] of over 10 µg/mL.
Regarding PGV04 (antibody), the IC50 (µg/mL), pseudovirus neutralization in assay [18] was 0.255 µg/mL; in assay [21], 0.083 µg/mL; in assay [25] it was over 50 µg/mL.
For VRC01 (antibody), the IC50 (µg/mL), pseudovirus neutralization is 0.029 µg/mL in assay [23], 0.055 µg/mL in assay [21], over 50 µg/mL in [25] and 0.616 µg/mL in assay [26]. Further, the IC50 in assay [28] is 0.216 µg/mL.
